As usually defined, the Kd is the concentration at which binding is half-saturated. A low value points to higher affinity.

Test [1] has as its target HLA-A*01:01. The experiment in a line: IEDB peptide-MHC binding, purified MHC/direct/fluorescence; filed as Kd, often an IC50 or EC50 that approximates it; ≥ and ≤ were set here for values at or beyond the usual limits of such assays.
For test [2], the target named is HLA-A*02:01. The test is described as above.
Test [3] has as its target HLA-A*03:01. The description is as above.
For another test, the target named is HLA-A*11:01. The description is as above.
The next test concerns the target HLA-A*24:03. The description is as above.
In test [4] the target is HLA-A*26:01. The description is as above.
Another test addresses HLA-A*30:01. The test is described as above.
In test [5] the target is HLA-A*69:01. Described as above.
The next test concerns the target HLA-B*07:02. The description is as above.
Test [6] addresses HLA-B*08:01. The description is as above.
Test [7] concerns the target HLA-B*15:01. The test is described as above.
The next test has as its target HLA-B*27:05. The description is as above.
The target in a further test is HLA-B*40:01. Described as above.
The next test concerns the target HLA-B*44:02. The test is described as above.
The target in test [8] is HLA-B*58:01. The description is as above.
Test [9] addresses HLA-A*31:01. Described as above.
Test [10] has as its target HLA-B*08:01. As to the kind of experiment: IEDB peptide-MHC binding, purified MHC/competitive/fluorescence; filed as Kd, often an IC50 or EC50 that approximates it; ≥ and ≤ were set here for values at or beyond the usual limits of such assays.
Test [11] concerns the target HLA-A*03:01. The description is as above.
For test [12], the target named is HLA-A*31:01. The description is as above. The note with it: source organism: Yersinia pestis Nepal516.
A further test concerns the target HLA-B*35:01. The description is as above.
In the next test the target is HLA-B*46:01. The test is described as above.
Test [13] has as its target HLA-B*58:01. The test is described as above.
For the next test, the target named is HLA-A*02:03. As to the kind of experiment: IEDB peptide-MHC binding, purified MHC/direct/fluorescence; filed as Kd, often an IC50 or EC50 that approximates it; ≥ and ≤ were set here for values at or beyond the usual limits of such assays. The note with it: source organism: Orthohantavirus tulaense.
The next test has as its target HLA-A*02:11. The test is described as above. The note with it: source organism: Orthohantavirus tulaense.
The target of the next test is HLA-A*02:12. Described as above. The note with it: source organism: Orthohantavirus tulaense.
The target of a further test is HLA-A*02:16. Described as above. The note with it: source organism: Orthohantavirus tulaense.
Another test addresses HLA-A*02:19. The test is described as above. The note with it: source organism: Orthohantavirus tulaense.
Another test deals with HLA-A*68:02. Described as above. The note with it: source organism: Orthohantavirus tulaense.
In test [14] the target is HLA-A*02:01. The experiment in a line: IEDB peptide-MHC binding, purified MHC/competitive/fluorescence; filed as Kd, often an IC50 or EC50 that approximates it; ≥ and ≤ were set here for values at or beyond the usual limits of such assays.
Test [15] addresses HLA-A*26:01. Described as above. The note with it: source organism: Orthohantavirus tulaense.
Test [16] has as its target HLA-A*69:01. Described as above. The note with it: source organism: Orthohantavirus tulaense.
The next test has as its target HLA-B*27:03. Described as above. The note with it: source organism: Orthohantavirus tulaense.
The next test deals with HLA-B*57:01. The test is described as above. The note with it: source organism: Orthohantavirus tulaense.
For test [17], the target named is HLA-A*01:01. The test is described as above. The note with it: source organism: Salmonella enterica subsp. enterica serovar Typhi.
Test [18] addresses HLA-B*15:01. The description is as above.
The mark [19] stands for this setting: source organism: Giardia lamblia ATCC 50803.
Where [20] appears, read: source organism: Pseudomonas aeruginosa UCBPP-PA14.
Setting [21] is: source organism: Pseudomonas aeruginosa.
[22] abbreviates: source organism: Campylobacter jejuni.
[23] abbreviates: source organism: Yersinia pestis Nepal516.
Setting [24] is: source organism: Mycobacterium tuberculosis F11.
Where [25] appears, read: source organism: Escherichia coli.
[26] abbreviates: source organism: Orthohantavirus tulaense.
[27] abbreviates: source organism: Salmonella enterica subsp. enterica serovar Typhi.
Setting [28] is: source organism: Escherichia coli 536.

For the sequence VYAYPSGEK, the Kd in the test with HLA-A*01:01 [1] (setting [19]) is no less than 20 µM; with HLA-A*02:01 [2] (setting [19]), no less than 20 µM; with HLA-A*03:01 [3] (setting [19]) it was 3.37 µM; with HLA-A*11:01 (setting [19]) it was 7.74 µM; with HLA-A*24:03 (setting [19]) it was no less than 20 µM; with HLA-A*26:01 [4] (setting [19]), no less than 20 µM. Besides, the Kd in the test with HLA-A*30:01 (setting [19]) was 4.7 µM; with HLA-A*69:01 [5] (setting [19]), no less than 20 µM; with HLA-B*07:02 (setting [19]) it was no less than 20 µM; with HLA-B*08:01 [6] (setting [19]), no less than 20 µM; with HLA-B*15:01 [7] (setting [19]), no less than 20 µM; in the test with HLA-B*27:05 (setting [19]) it was no less than 20 µM. Further, the Kd with HLA-B*40:01 (setting [19]), with HLA-B*44:02 (setting [19]) and with HLA-B*58:01 [8] (setting [19]) was no less than 20 µM throughout.

As for RDYRTISPR, the Kd is no less than 20 µM with HLA-A*01:01 [1] (setting [20]); no less than 20 µM with HLA-A*02:01 [2] (setting [20]); 3.44 µM with HLA-A*03:01 [3] (setting [21]); 8.65 µM with HLA-A*11:01 (setting [21]); no less than 20 µM in the test with HLA-A*24:03 (setting [20]); no less than 20 µM with HLA-A*26:01 [4] (setting [20]). The Kd with HLA-A*30:01 (setting [21]) is 2.01 µM; in the test with HLA-A*31:01 [9] (setting [21]) it was 0.046 µM; with HLA-A*69:01 [5] (setting [20]), no less than 20 µM; with HLA-B*07:02 (setting [20]), no less than 20 µM; with HLA-B*08:01 [6] (setting [20]) it was no less than 20 µM; with HLA-B*15:01 [7] (setting [20]), no less than 20 µM. Further, the Kd with HLA-B*27:05 (setting [20]), with HLA-B*40:01 (setting [20]) and in the test with HLA-B*58:01 [8] (setting [20]) was no less than 20 µM in each case.

Regarding VKKLWGHLP, the Kd with HLA-A*01:01 [1] (setting [22]), with HLA-A*02:01 [2] (setting [22]), with HLA-A*03:01 [3] (setting [22]), with HLA-A*11:01 (setting [22]), in the test with HLA-A*24:03 (setting [22]) and in the test with HLA-A*26:01 [4] (setting [22]) was no less than 20 µM in each case. The Kd in the test with HLA-A*30:01 (setting [22]), with HLA-A*31:01 [9] (setting [22]), in the test with HLA-A*69:01 [5] (setting [22]), with HLA-B*15:01 [7] (setting [22]), in the test with HLA-B*27:05 (setting [22]) and in the test with HLA-B*40:01 (setting [22]) was no less than 20 µM in each case. Also, the Kd in the test with HLA-B*44:02 (setting [22]) and with HLA-B*58:01 [8] (setting [22]) was no less than 20 µM in each case.

Consider HPKRTERAG, for which the Kd with HLA-B*08:01 [10] (source organism: Escherichia coli O139:H28 str. E24377A) is no less than 20 µM.

For the sequence FIRLRFAFK, the Kd in the test with HLA-A*03:01 [11] (setting [23]) is no less than 20 µM; with HLA-A*31:01 [12], 0.0173 µM; in the test with HLA-B*08:01 [10] (setting [23]), no less than 20 µM.

On to FSIPVTFSY, for which the Kd in the test with HLA-A*01:01 [1] (source organism: Mycobacterium tuberculosis) is 0.316 µM; in the test with HLA-B*35:01 (setting [24]), no more than 0.0001 µM; with HLA-B*46:01 (setting [24]) it was 0.0686 µM; with HLA-B*58:01 [13] (setting [24]), 0.0007 µM.

As to GPGEVSAAM, the Kd with HLA-B*07:02 (source organism: Mycobacterium tuberculosis str. Haarlem) was 0.146 µM; with HLA-B*35:01 (source organism: Mycobacterium tuberculosis variant bovis BCG str. Pasteur 1173P2), 0.0039 µM.

On to WCRVGRGTI, for which the Kd was no less than 20 µM in the test with HLA-A*01:01 [1] (setting [25]); no less than 20 µM with HLA-A*02:01 [2] (setting [25]); no less than 20 µM with HLA-A*03:01 [3] (setting [25]); no less than 20 µM with HLA-A*11:01 (setting [25]); 13.8 µM with HLA-A*24:03 (setting [25]); no less than 20 µM with HLA-A*26:01 [4] (setting [25]). In addition, the Kd in the test with HLA-A*30:01 (setting [25]) is no less than 20 µM; in the test with HLA-A*31:01 [9] (setting [25]) it was no less than 20 µM; with HLA-A*69:01 [5] (setting [25]) it was no less than 20 µM; with HLA-B*07:02 (setting [25]), 4.68 µM; with HLA-B*08:01 [6] (setting [25]) it was no less than 20 µM; in the test with HLA-B*15:01 [7] (setting [25]) it was no less than 20 µM. Further, the Kd in the test with HLA-B*27:05 (setting [25]) is no less than 20 µM; with HLA-B*40:01 (setting [25]), no less than 20 µM; in the test with HLA-B*58:01 [8] (setting [25]), no less than 20 µM; with HLA-B*35:01 (source organism: Escherichia coli str. K-12 substr. MG1655) it was no less than 5 µM.

Turning to FGAAVSLLF, the Kd with HLA-A*02:03, with HLA-A*02:11, with HLA-A*02:12, in the test with HLA-A*02:16, with HLA-A*02:19 and in the test with HLA-A*03:01 [3] (setting [26]) was no less than 20 µM each time. The Kd in the test with HLA-A*68:02 is no less than 20 µM; in the test with HLA-B*15:01 [7] (source organism: Orthohantavirus andesense) it was 0.0536 µM; with HLA-A*02:01 [14] (setting [26]) it was no less than 20 µM; with HLA-A*26:01 [15] it was no less than 20 µM; in the test with HLA-A*69:01 [16], no less than 20 µM; in the test with HLA-B*27:03 it was no less than 20 µM. Moreover, the Kd was 0.0027 µM in the test with HLA-B*35:01 (setting [26]), no less than 20 µM with HLA-B*46:01 (setting [26]), no less than 20 µM in the test with HLA-B*57:01 and 0.0013 µM with HLA-B*58:01 [13] (setting [26]).

MTAAQIRRY: the dissociation constant Kd in the test with HLA-A*01:01 [17] is 0.243 µM; in the test with HLA-A*03:01 [11] (setting [27]), 3.5 µM; in the test with HLA-B*15:01 [18] (setting [27]), 0.168 µM; in the test with HLA-B*58:01 [13] (setting [27]), no less than 20 µM.

WLLLRQLPI: the Kd with HLA-A*02:01 [14] (setting [28]) is 0.0146 µM; with HLA-B*08:01 [10] (setting [28]), 0.0452 µM; with HLA-B*15:01 [18] (setting [28]), no less than 20 µM.

Source of the values: the Immune Epitope Database (IEDB).
